Experimental data taken from patent US20060002951A1.

Target: wild-type human APOBEC3G with a fused HA tag at the C-terminus (human) (UniProt Q9HC16)
Assay: co-immunoprecipitation with anti-HA from 293T cell lysate, Western blot with anti-CA; ratio normalized to hGag

wild-type human APOBEC3G with a fused HA tag at the C-terminus (human), sequence (Q9HC16 whole entry, the tested form may be a part): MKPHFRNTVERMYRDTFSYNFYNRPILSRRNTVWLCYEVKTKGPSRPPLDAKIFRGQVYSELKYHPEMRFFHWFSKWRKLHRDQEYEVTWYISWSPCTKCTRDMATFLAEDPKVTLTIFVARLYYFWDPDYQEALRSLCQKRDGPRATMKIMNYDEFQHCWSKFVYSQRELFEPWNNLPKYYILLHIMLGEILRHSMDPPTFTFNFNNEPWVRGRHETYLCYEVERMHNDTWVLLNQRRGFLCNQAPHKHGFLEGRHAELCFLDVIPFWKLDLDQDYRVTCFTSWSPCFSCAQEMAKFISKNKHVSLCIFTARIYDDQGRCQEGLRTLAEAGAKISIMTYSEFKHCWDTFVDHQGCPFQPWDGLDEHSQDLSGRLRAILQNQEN

In the case of “hGag deletion mutant Δ378-500 (from UniProt P04585 1-377)”, the reduction in the interaction of Gag with APOBEC3G against hGag is reported as greater than 95%.
